Entries after “also recorded” stand apart in the source; their conditions may differ.
Key:
[1] = system: leukocyte proteases including neutrophil elastase, trypsin, and insulin-degrading enzyme; assay: Insulin degradation by leukocyte proteases (SDS-PAGE) +/- inhibitors; type: biochemical; conditions: in vitro
Experimental: (§1) To characterize the ability of purified proteases or leukocyte extracts to degrade FITC-insulin in vitro we analyzed the impact of cell culture supernatants and cell lysates on insulin degradation using 10-20% SDS-PAGE gels. This was performed +/−anti-protease cocktails to characterize proteases responsible for insulin degradation. The functional activity of individual leukocyte proteases was analyzed using protease PAGE gels +/−protease inhibitors. This study clarifies the role of leukocytes in insulin therapy. (FIG. 13a, 13b, 13c and FIG. 14).

Trypsin = assay: Insulin degradation by trypsin +/- anti-proteases (PAGE); type: biochemical
Experimental: as §1, with “This study clarifies the role of leukocytes in insulin therapy.” left out
(§2) In FIG. 53, I=insulin, T=Trypsin, E=Elastase, IDE-Insulin Degrading Enzyme, PMN=Triton X100 extract of human PMN, mwn=molecular weight marker.
(§3) In this example, we tested the ability of various anti-proteases to inhibit insulin degradation by leukocyte extracts and proteases.

[2] = system: Triton X100 extract of human PMN; assay: Insulin degradation by PMN extracts +/- inhibitors (PAGE); type: biochemical
Text: as §2, §3

Elastase = target: T1, Elastase (Homo sapiens, UniProt P08246); assay: Insulin degradation by elastase +/- anti-proteases (PAGE); type: biochemical
T1 sequence (P08246 30-267): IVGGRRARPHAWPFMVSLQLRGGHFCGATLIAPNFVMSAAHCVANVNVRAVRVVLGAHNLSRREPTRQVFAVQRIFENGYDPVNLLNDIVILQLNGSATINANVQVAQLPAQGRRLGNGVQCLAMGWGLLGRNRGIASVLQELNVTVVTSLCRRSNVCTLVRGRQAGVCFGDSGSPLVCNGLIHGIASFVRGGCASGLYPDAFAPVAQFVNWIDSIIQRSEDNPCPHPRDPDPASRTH
Experimental: as §1, with “This study clarifies the role of leukocytes in insulin therapy.” left out
as §2, §3

[3] = system: human peripheral blood mononuclear cells (PMBC); assay: Alamar Blue cell viability of human PBMC; type: cell-based
Experimental: For these in vitro studies, generally either human or mouse leukocyte cells or cell lines were cultured in vitro in the presence or absence of insulin preservatives or fibrils at various concentrations. at selected times cell viability and or cell activation has (cytokine expression) was determined. The results of these studies are presented below the general work flow for these studies are located in FIG. 61. […] Insulin diluent contains the formulation components of commercial insulin solutions but without the insulin protein itself. For these studies we utilized the work flow described in FIG. 61. […] At physiologic concentrations, both insulin formulation and insulin fibrils are toxic for human cells in vitro. […] The Protocol was: Hu-PBMC+insulin (72 hr)=>Assay Interleukin 8 (IL-8). […] The Protocol was Hu-PBMC+insulin (7 days)=>Assay Interferon gamma. […] The in vivo activation of these cells would cause inflammation and tissue destruction resulting in loss of effective CSII function.

[4] = system: human peripheral blood mononuclear cells (PBMC); assay: In vitro morphology of human PBMC after exposure; type: cell-based
Experimental: FIG. 6. Toxicity of insulin and fibrils in vitro: Preliminary in vitro morphology of human peripheral blood mononuclear cells (PBMC) after exposure to control media, high (1.0 mg/mL), and low (0.1 mg/mL) concentrations of insulin or insulin fibrils (i.e. insulin degradation byproducts) FIG. 6). Healthy control cells [Left column] show a rounded morphology.

human PBMCs = assay: Pro-inflammatory cytokine expression by human PBMC in vitro; type: cell-based
Experimental: For these in vitro studies, generally either human or mouse leukocyte cells or cell lines were cultured in vitro in the presence or absence of insulin preservatives or fibrils at various concentrations. at selected times cell viability and or cell activation has (cytokine expression) was determined. The results of these studies are presented below the general work flow for these studies are located in FIG. 61.
FIG. 7. Our in vitro studies Insulin and excipients induced expression of pro-inflammatory cytokines in PBMC in vitro. […] Similar data has been obtained with human cell lines (THP-1) and mouse macrophages (MQ). This supports our belief that I/E can induce inflammation in vivo, and that chronic infusion of IFP can cause chronic inflammation and fibrosis.
For these studies we utilized the work flow described in FIG. 61. […] At physiologic concentrations, both insulin formulation and insulin fibrils are toxic for human cells in vitro. […] The Protocol was: Hu-PBMC+insulin (72 hr)=>Assay Interleukin 8 (IL-8). […] The Protocol was Hu-PBMC+insulin (7 days)=>Assay Interferon gamma. […] The in vivo activation of these cells would cause inflammation and tissue destruction resulting in loss of effective CSII function.

human neutrophils = assay: Survival of human PMNs in serial dilutions; type: cell-based; conditions: 3 days, 1:48 dilution
Text: As the concentration increased, the number of cells surviving decreased for both insulin and insulin diluent.

[5] = target: Insulin degrading enzyme (IDE) (Homo sapiens, UniProt P14735); assay: Insulin degradation by insulin degrading enzyme +/- anti-proteases (PAGE); type: biochemical
Experimental: as §1, with “This study clarifies the role of leukocytes in insulin therapy.” left out
as §2, §3

mouse mast cells = assay: Mast cell morphology/toxicity in vitro; type: cell-based; conditions: physiologic concentrations
Text: FIGS. 46-47 show the impact of insulin on mast cell morphology. At physiologic concentrations, both insulin formulations fibrils (not shown) are toxic to mouse mast cells in vitro.

human mast cells = assay: Mast cell viability (alamar Assay); type: cell-based
Text: (§4) FIGS. 48-49 show the impact of insulin on mast cell viability and degranulation. Mast cells (MC) are key skin “sentinel” cells and are generally the first tissue cell population activated by tissue trauma triggering acute inflammatory or allergic reactions and serve a central role in chronic inflammation and wound healing. Recent results from our laboratory indicate that skin mast cells affect glucose sensor induced tissue reactions and CGM function (13).

HMC-1 human mast cells = assay: Mast cell degranulation/activation; type: cell-based; conditions: in vitro
Text: as §4

infusion site tissue = assay: Tissue toxicity of infusion (open loop CSII mouse model); conditions: open loop delivery system
Text: Combined CSII and CGM mouse model (A B, C). Non-obese diabetic (NOD) mouse implanted with Abbott Navigator glucose sensor (GS) and a short polymer infusion set for CSII. The set and sensor were placed sufficiently far apart to avoid interference. Open Loop CGM and CSII insulin infusion system cage and assembly, that allows animal ambulation and mobility during simultaneous continuous glucose sensing and insulin infusion.
Tissue Toxicity of Insulin in vivo: Infusion: The sectioned polymer catheter wall is visible and marked with a black asterisk (*) in all tissues. […] Infusion was accomplished using the open loop delivery system described in FIG. 5.

air pouch = assay: Leukocyte influx into murine air pouch model (lavage cell count); conditions: injection or infusion into air pouch
Experimental: For this model, sterile air was injected subcutaneously into mouse skin creating a sustained compartment (pouch) for injection of test agents (FIG. 2). At various times post-air/post-agent injection, the “air pouch” can be lavaged, and the cell and fluid content removed and characterized using standard technology (FIG. 2). After lavage, tissue reactions in the air pouch walls can also be determined using standard histopathology/immunohistochemistry (FIG. 2).
We adapted this model for the evaluation of tissue responses to infusion of insulin, excipients, factors, drugs and control solutions (e.g. saline). […] Initially, CD-1 mice received air injections (3 mL) into the dorsal site of the low back to induce the air pouch in each animal. On the following day individual mice received infusions of either saline or insulin diluent. […] Exudate was then centrifuged and a TC10 automated cell counter determined the total viable leukocyte cells. The potential inflammatory effect of insulin diluent was evaluated through the analysis on the mouse leukocyte count and exudate concentrations in the inflamed air pouch cavity.
Air was injected subcutaneously into the mouse skin creating a sustained compartment (pouch) for injection of diluent or saline (control). […] The resulting fluid was characterized for cell number (auto-hemo-cytometer), and cell type using fluorescence activated Cell sorting (FACS).

Substance: AAT: alpha-1-antitrypsin, natural protease inhibitor
- reduction of activity of insulin-degrading leukocyte proteases [1]: reduced
- blocking of insulin degradation by trypsin (Trypsin): blocked
- inhibition of insulin degradation by PMN extracts [2]: completely inhibits; also recorded: blocked

Substance: FITC-insulin: fluorescent insulin (FITC-insulin; Sigma, St. Louis, MO)
- degradation of insulin by elastase (Elastase): degraded

Substance: aprotinin
- reduction of activity of insulin-degrading leukocyte proteases [1]: reduced
- blocking of insulin degradation by elastase (Elastase): blocked
- blocking of insulin degradation by trypsin (Trypsin): blocked
- inhibition of insulin degradation by PMN extracts [2]: blocked

Substance: insulin: commercial insulin formulation: complete insulin (insulin plus preservatives)
- cell viability (Alamar Blue assay) ([3]; 3 days of exposure to increasing concentrations): decreasing cell viability
- toxicity for human cells in vitro ([3]; physiologic concentrations): toxic
- PBMC morphology ([4]; high (1.0 mg/mL) concentration): tight contracted morphology indicative of cell death/dying
- PBMC morphology ([4]; low (0.1 mg/mL) concentration): spread, expanded morphology indicative of cell injury/activation
- pro-inflammatory activation of Hu-PBMC (human PBMCs; IL-8 72 hr, Interferon gamma 7 days): cause pro-inflammatory activation
- expression of pro-inflammatory cytokines including IL-6, IL-8 and TNFa (human PBMCs; PBMC in vitro): induce expression of pro-inflammatory cytokines
- number of PMN's surviving vs buffer alone (human neutrophils): significantly fewer cells surviving
- degradation of insulin by elastase (Elastase): cleaves insulin at many sites
- degradation of insulin by insulin degrading enzyme [5]: cleaves insulin into several smaller peptides
- toxicity to mouse mast cells (mouse mast cells): toxic
- mast cell death (alamar Assay) (human mast cells; increasing concentration): increasing cell death
- toxicity to human mast cells (human mast cells; physiologic concentrations): toxic
- mast cell degranulation / activation (HMC-1 human mast cells): activate MCs
- mast cell degranulation / activation (HMC-1 human mast cells; listed as insulin formulations): cause mast cell degrandulation
- tissue reaction at infusion site surrounding catheter (infusion site tissue): extensive cell damage, inflammation and cellular infiltrate
- inflammation / tissue reactions in air pouch vs saline (air pouch): cause tissue reactions

Source: US12109252B2, “Systems, methods and products for minimizing tissue reactions and tissue injury at an infusion site” (Cell and Molecular Tissue Engineering, LLC, priority 2016, dated 2024)
